# Laboratory results from patent publication US9738726B2, “HER2-specific monoclonal antibodies and conjugates thereof” (The United States of America, as represented by the …, priority 2013, dated 2017).
# “Also recorded” adds a separate entry of the source. Where a SMILES comes first, the peptide text is derived from it. [ ]: non-standard residue; d: D form. The star is where a group is joined. ξ: configuration not given here. Dolaproine = CO[C@@H]([C@@H]1CCCN1)[C@@H](C)C(=O)O; Dil = CC[C@H](C)[C@H](NC)[C@@H](CC(=O)O)OC; NMe2Val = CC(C)[C@@H](C(=O)*)N(C)C; ξV = CC(C)C(N)C(=O)O; X1 = NOCCOCCOCCN*
# Assays:
# [1] = tested on: MCF-7 cells (do not express Her2); test: In vitro cytotoxicity assay, MCF-7 cells; type: cell-based; conditions: 72 hours, FIG. 7B
# Procedure: (§1) In Vitro Cytotoxicity Assay
# (§2) SKBR3, MCF-7 and JIMT-1 cells were cultured and assayed in DMEM (Life Technologies) with 10% (vol/vol) FBS (Gibco), 100 IU/mL penicillin, and 100 µg/mL streptomycin (Life Technologies). For the cytotoxicity assays, the cancer cell lines were plated in 96-well plates at ˜1,000 cells in 70 μL per well in culture medium and incubated overnight at 37° C. and 5% CO2. Drugs (m860 IgG1, m860 ADC and free drug nAF) were filtered (0.22 μm; Millipore) and 30 μl of serially diluted drugs in culture medium were added into the wells in duplicate and incubated at 37° C. for 72 hours. Colorimetric reagent (Promega) was then added to each well. After a 3-hour incubation at 37° C., the absorbance at 490 nm was measured, and IC50 was determined by GraphPad Prism.
# FcγRI (CD64) = FcγRI (CD64) (Homo sapiens, UniProt P12314); test: Surface plasmon resonance (Biacore) binding to FcγRI (CD64); conditions: SPR, FcγRI immobilized on CM5 chip, 25° C., 1:1 model
# Chain of FcγRI (CD64) (P12314 16-374, species assumed): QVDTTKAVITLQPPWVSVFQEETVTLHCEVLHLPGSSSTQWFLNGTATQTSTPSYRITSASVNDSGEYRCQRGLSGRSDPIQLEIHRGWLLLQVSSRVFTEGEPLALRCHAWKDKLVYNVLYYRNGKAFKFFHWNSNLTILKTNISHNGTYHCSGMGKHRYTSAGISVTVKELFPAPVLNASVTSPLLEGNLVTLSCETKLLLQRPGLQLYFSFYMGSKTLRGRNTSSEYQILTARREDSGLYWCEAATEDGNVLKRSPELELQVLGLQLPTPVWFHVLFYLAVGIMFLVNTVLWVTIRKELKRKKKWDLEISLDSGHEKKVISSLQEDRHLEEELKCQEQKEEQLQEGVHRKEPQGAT
# Procedure: (§3) Comparison of the Binding Affinities of m860 and m860 ADC to FcγRIII (CD16) and FcγRI (CD64) Measured by Surface Plasmon Resonance
# (§4) Interactions between the antibodies and CD16 and CD64 were analyzed by surface plasmon resonance technology using a Biacore™ X100 instrument (GE healthcare). CD16 or CD64 was covalently immobilized onto a sensor chip (CM5) using carbodiimide coupling chemistry. A control reference surface was prepared for nonspecific binding and refractive index changes. For analysis of the kinetics of interactions, varying concentrations of antibodies were injected at flow rate of 30 μL/min using running buffer containing 10 mmol/L HEPES, 150 mmol/L NaCl, 3 mmol/L EDTA, and 0.05% Surfactant P-20 (pH=7.4). The association and dissociation phase data were fitted simultaneously to a 1:1 model by using BIAevaluation 3.2. All the experiments were done at 25° C.
# [2] = target: T1, Her2-ECD-Fc fusion protein (Homo sapiens, UniProt P04626); test: Phage ELISA screening of clones panned against Her2-ECD-Fc; type: binding; conditions: five unique clones after third round of biopanning
# T1 construct: three rounds of panning against a recombinant Her2 protein ectodomain; purchased R&D systems
# Procedure: A naïve human Fab phage display library (a total of about […] members), constructed from peripheral blood B cells of 10 healthy donors, was used for selection of Fabs against Her2-ECD-Fc fusion protein (R&D systems) conjugated to magnetic beads (DYNABEADS™ M-270 epoxy, Invitrogen). […] After each round of incubation, the beads were washed 5 times for the first round and 15 times for the later rounds with phosphate-buffered saline containing 0.05% Tween 20 (PBST) to remove nonspecifically bound phage. The bead-bound phage were mixed with TG1 cells for 1 hour at 37° C., and the phage was amplified from the infected cells and used in the next round of biopanning. After the third round of biopanning, 190 clones were randomly picked and monoclonal phage was prepared and used for phage ELISA screening to identify the positive binders. […] The nucleotide and amino acid sequences of the m860 VH and VL domains are set forth herein as SEQ ID NOs: 1-4.
# [3] = target: T2, cell surface-associated Her2 (Homo sapiens, UniProt P04626); test: Binding to cell surface-associated Her2; conditions: compared with trastuzumab (Herceptin)
# T2 construct: endogenous in cells
# FcγRIII (CD16) = test: Surface plasmon resonance (Biacore) binding to FcγRIII (CD16); conditions: SPR, FcγRIII immobilized on CM5 chip, 25° C., 1:1 model
# Procedure: as §3, §4
# Her2 = Her2 (Homo sapiens, UniProt P04626); test: Competition with Herceptin / epitope comparison; type: binding
# [4] = tested on: JIMT-1 cells (moderate Her2 expression, trastuzumab-resistant patient); test: In vitro cytotoxicity assay, JIMT-1 cells; type: cell-based; conditions: 72 hours, FIG. 7C
# Procedure: as §1, §2
# [5] = tested on: SKBR3 cells (overexpress Her2); test: In vitro cytotoxicity assay, SKBR3 cells; type: cell-based; conditions: 72 hours, FIG. 7A, listed as WT m860 IgG1
# Procedure: as §1, §2
# Her2 on SKBR3 cells = target: T3, Her2 on SKBR3 cells (Homo sapiens, UniProt P04626); test: Flow cytometry binding to Her2 on SKBR3 cells; conditions: FIGS. 6A-6B
# T3 construct: SKBR3 breast cancer cells, which overexpress Her2, were detached in cell dissociation buffer; endogenous in cells; host or cells: SKBR3 breast cancer cells
# Procedure: SKBR3 breast cancer cells, which overexpress Her2, were detached in cell dissociation buffer and rinsed in PBS. […] Unbound antibodies were washed away with PBSA. The secondary antibody, goat anti-human IgG conjugated with PE (Sigma), was diluted at 1:100 and incubated with cells on ice for 30 minutes. Cells were washed and resuspended in PBSA buffer for flow cytometry analysis on FACSCalibur (Becton Dickinson).
Molecule,cytotoxicity [1],Kd (FcγRI (CD64)) [nM],ka (FcγRI (CD64)) [M⁻¹ s⁻¹],kd (FcγRI (CD64)) [s⁻¹],binding activity in phage ELISA screening [2],affinity for cell surface-associated Her2 [3],Kd (FcγRIII (CD16)) [nM],ka (FcγRIII (CD16)) [M⁻¹ s⁻¹],kd (FcγRIII (CD16)) [s⁻¹],competition with Herceptin / epitope relative to trastuzumab (Her2),cytotoxicity [4],cytotoxicity [5],binding activity to Her2 on SKBR3 cells before and after nAF conjugation (Her2 on SKBR3 cells)
"CC[C@H](C)[C@@H]([C@@H](CC(=O)N1CCC[C@H]1[C@H](OC)[C@@H](C)C(=O)N[C@@H](Cc1ccccc1)C(=O)NCCOCCOCCON)OC)N(C)C(=O)C(NC(=O)[C@H](C(C)C)N(C)C)C(C)C (stereo partly shown) [nAF, Auristatin F with a non-cleavable linker attached at the C-terminus] (NMe2Val-[ξV][Dil][Dolaproine]F-X1)",significant cytotoxicity,,,,,,,,,,,,
"M860 IgG1: Her2-specific human monoclonal antibody from naïve phage display Fab library, VH SEQ ID NO: 2, VL SEQ ID NO: 4, converted to full size human IgG1 (antibody, V domains shown, IgG1 constant regions without entry) VH: EVQLVQSGAEVKKPGESLKISCKGSGYSFTSYWIGWVRQMPGKGLEWMGIIYPGDCDRSDTRYSPSFQGQVTISADKSISTAYLQWSSLKASDTAMYYCARQYSGYDRYYFDYWGQGTLVTVSS VL: QTVVTQEPSFSVSPGGTVTLTCGLNSGSVSTRHYPSWYQQTPGQAPRTLIYSTDICDRRSSGAPSHISGSILGNKAALTITGAQADDASDYYCALYLGNGIAVFGSGTKVTVLG",,22.5,44790,0.001007,highest binding activity,comparable to that of trastuzumab,1500,11080,0.01608,binds to a different epitope,little effect,did not exhibit any cytotoxicity; also recorded: did not show any cytotoxicity,not impacted by nAF conjugation
